Source: patent US20150011462A1 (Novo Nordisk, published 2015)
Numbered stars: 1 amine (or outer) side, 2 acyl side, 3 side chain; on linkers, the order of the positions; unused ones are H or OH. Square brackets hold non-standard residues; d marks the D form. Side chains are listed from the residue outwards. Ends that are not written are not given here. * marks the point of attachment. TtdSuc = 4-[3-[2-[2-(3-aminopropoxy)ethoxy]ethoxy]propylamino]-4-oxobutanoyl; C20 diacid = O=C(O)CCCCCCCCCCCCCCCCCCC(=O)*; C19 diacid = O=C(O)CCCCCCCCCCCCCCCCCC(=O)*; γGlu = O=C(O)[C@H](CCC(=O)[*:2])N[*:1]; Desaminohistidyl = O=C(CCc1c[nH]cn1)*; εLys = N[C@@H](CCCCN[*:1])C(=O)[*:2]; Trx = NC[C@H]1CC[C@H](C(=O)O)CC1; PEG4 = NCCOCCOCCOCCOCCC(=O)O; AEEA = NCCOCCOCC(=O)O; Aib = CC(C)(N)C(=O)O; Inp = O=C(O)C1CCNCC1

What was measured:
human GLP-1 receptor [1] = molecular target: T1, human GLP-1 receptor (human, UniProt P43220 24-463); test: cell-based or functional assay
human GLP-1 receptor [2] = molecular target: T1, human GLP-1 receptor; test: competitive binding (SPA): displacement of 125I-GLP-1(7-36)NH2 from BHK cell membranes with human GLP-1 receptor; high HSA (2.0% final)
Description: (§1) For the receptor binding assay in the presence of low HSA (0.005%) 50 μl of the assay buffer was added to each well of an assay plate. […] For the receptor binding assay in the presence of high HSA (2%) 50 μl of the 8% albumin stock was added to each well of an assay plate. […] Cell membrane aliquots were thawed and diluted to their working concentration. Fifty μl were added to each well in the assay plate. […] WGA SPA beads were suspended in assay buffer at 20 mg/ml. The suspension was diluted to 10 mg/ml in assay buffer just prior to addition to the assay plate. Fifty μl were added to each well in the assay plate. […] A 25 μl aliquot was reserved for measuring total counts/well. […] The assay plate was incubated for 2 h at 30° C. […] The assay plate was centrifuged for 10 min. […] The assay plate was read in a Packard TopCount NXT instrument.

human GLP-1 receptor [3] = molecular target: T1, human GLP-1 receptor; test: competitive binding (SPA): displacement of 125I-GLP-1(7-36)NH2 from BHK cell membranes with human GLP-1 receptor; low HSA (max. 0.001% final)
Description: as §1

| Binder | EC50 (pM), in vitro potency, CRE luciferase reporter gene assay in BHK cells expressing the human GLP-1 receptor (human GLP-1 receptor [1]) [pM] | IC50 (human GLP-1 receptor [2]) [nM] | IC50 (human GLP-1 receptor [3]) [nM] |
| --- | --- | --- | --- |
| HXEGTFTSDVSSYLEEQAAREFIAWLVRGRGKGGSK (Aib at position 8; N-epsilon of Lys38 and of Lys42 each acylated with C20 diacid (19-carboxynonadecanoyl)-gGlu-TotaGlyc (GLP-1(7-37) numbering = sequence-listing position + 6), Double-acylated, C-terminally extended GLP-1 analogue made by SPPS; The printed name has 'AAib8' (typographic slip for Aib8); also called 22) | 10 | 194 | 0.82 |
| HXEGTFTSDVSSYLEEQAAREFIAWLVRGRGKGGSK (Aib at position 8; N-epsilon of Lys38 and of Lys42 each acylated with C20 diacid (19-carboxynonadecanoyl)-Trx-gGlu-DooaSuc (GLP-1(7-37) numbering = sequence-listing position + 6), Double-acylated, C-terminally extended GLP-1 analogue made by SPPS; also called 23) | 22 | 201 | 1.4 |
| H[Aib]EGTFTSDVSSYLEEQAAREFIAWLVRGRGK([AEEA-AEEA-AEEA-AEEA-AEEA-εLys-εLys-C20 diacid])GGSK([AEEA-AEEA-AEEA-AEEA-AEEA-εLys-εLys-C20 diacid]) (Double-acylated, C-terminally extended GLP-1 analogue made by SPPS; also called 27) | 4.4 | 30 | 0.08 |
| H[Aib]EGTFTSDVSSYLEEQAAREFIAWLVRGRGK([PEG4-γGlu-Trx-C20 diacid])GGSK([PEG4-γGlu-Trx-C20 diacid]) (Double-acylated, C-terminally extended GLP-1 analogue made by SPPS; also called 10) | 27 | 123 | 1.3 |
| H[Aib]EGTFTSDVSSYLEEQAAREFIAWLVRGRGK([AEEA-AEEA-AEEA-AEEA-εLys-εLys-C20 diacid])GGSK([AEEA-AEEA-AEEA-AEEA-εLys-εLys-C20 diacid]) (Double-acylated, C-terminally extended GLP-1 analogue made by SPPS; also called 25) | 10 | 38 | 0.22 |
| H[Aib]EGTFTSDVSSYLEEQAAREFIAWLVRGRGK([TtdSuc-γGlu-Inp-C20 diacid])GGSK([TtdSuc-γGlu-Inp-C20 diacid]) (Double-acylated, C-terminally extended GLP-1 analogue made by SPPS; also called 21) | 19 | 177 | 1.3 |
| H[Aib]EGTFTSDVSSYLEEQAAREFIAWLVRGRGK([AEEA-AEEA-γGlu-Trx-C19 diacid])GGSK([AEEA-AEEA-γGlu-Trx-C19 diacid]) (Double-acylated, C-terminally extended GLP-1 analogue made by SPPS; also called 26) | 13 | 202 | 0.88 |
| H[Aib]EGTFTSDVSSYLEEQAAREFIAWLVRGK([AEEA-AEEA-γGlu-Trx-C20 diacid])GAESPK([AEEA-AEEA-γGlu-Trx-C20 diacid]) (Double-acylated, C-terminally extended GLP-1 analogue made by SPPS; also called 14) | 22 | 530 | 1.5 |
| H[Aib]EGTFTSDVSSYLEEQAAREFIAWLVRGK([AEEA-AEEA-γGlu-Trx-C20 diacid])GPASEK([AEEA-AEEA-γGlu-Trx-C20 diacid]) (Double-acylated, C-terminally extended GLP-1 analogue made by SPPS; also called 15) | 20 | 928 | 1.6 |
| H[Aib]EGTFTSDVSSYLEEQAAREFIAWLVRGRGK([AEEA-AEEA-AEEA-AEEA-γGlu-Trx-C20 diacid])GGSK([AEEA-AEEA-AEEA-AEEA-γGlu-Trx-C20 diacid]) (Double-acylated, C-terminally extended GLP-1 analogue made by SPPS; also called 17) | 12 | 99 | 1.8 |
| [Desaminohistidyl][Aib]EGTFTSDVSSYLEEQAAREFIAWLVRGRGK([AEEA-AEEA-AEEA-AEEA-γGlu-Trx-C20 diacid])GGSK([AEEA-AEEA-AEEA-AEEA-γGlu-Trx-C20 diacid]) (Double-acylated, C-terminally extended GLP-1 analogue made by SPPS; also called 18) | 13 | 219 | 2.3 |
| H[Aib]EGTFTSDVSSYLEEQAAREFIAWLVRGRGK([AEEA-AEEA-AEEA-AEEA-AEEA-AEEA-γGlu-Trx-C20 diacid])GGSK([AEEA-AEEA-AEEA-AEEA-AEEA-AEEA-γGlu-Trx-C20 diacid]) (Double-acylated, C-terminally extended GLP-1 analogue made by SPPS; also called 24) | 7 | 84 | 0.67 |
| H[Aib]EGTFTSDVSSYLEEQAAREFIAWLVRGRGK([AEEA-AEEA-AEEA-AEEA-γGlu-C20 diacid])GGSK([AEEA-AEEA-AEEA-AEEA-γGlu-C20 diacid]) (Double-acylated, C-terminally extended GLP-1 analogue made by SPPS; also called 19) | 6.2 | 142 | 2.4 |
| H[Aib]EGTFTSDVSSYLEEQAAREFIAWLVRGRGK([AEEA-AEEA-γGlu-Trx-C20 diacid])GGSK([AEEA-AEEA-γGlu-Trx-C20 diacid]) (Double-acylated, C-terminally extended GLP-1 analogue made by SPPS) | 43 | 185 | 1.2 |
| H[Aib]EGTFTSDVSK([AEEA-AEEA-γGlu-Trx-C20 diacid])YLEEQAAREFIAWLVRGRGGGGSK([AEEA-AEEA-γGlu-Trx-C20 diacid]) (Double-acylated, C-terminally extended GLP-1 analogue made by SPPS) | 93 | ≥ 1000 | 1 |
| H[Aib]EGTFTSDVSSYLEEQAARK([AEEA-AEEA-γGlu-Trx-C20 diacid])FIAWLVRGRGGGGSK([AEEA-AEEA-γGlu-Trx-C20 diacid]) (Double-acylated, C-terminally extended GLP-1 analogue made by SPPS) | 55 | 275 | 0.75 |
| H[Aib]EGTFTSDVSSYLEEQAAREFIAWLVRGRGK([AEEA-AEEA-γGlu-Trx-C20 diacid])SPEK([AEEA-AEEA-γGlu-Trx-C20 diacid]) (Double-acylated, C-terminally extended GLP-1 analogue made by SPPS; also called 11) | 27 | 116 | 1.5 |
| H[Aib]EGTFTSDVSSYLEEQAARKFIAWLVRGRGGGGSK (not fully specified (residues 21, 36), Double-acylated, C-terminally extended GLP-1 analogue made by SPPS; The printed name has a typographic slip ('R2S)' for '[(2S)')) | 260 | 383 | 0.43 |
| H[Aib]EGTFTSDVSSYLEEQAAREFIAK([AEEA-AEEA-γGlu-Trx-C20 diacid])LVRGRGGGGSK([AEEA-AEEA-γGlu-Trx-C20 diacid]) (Double-acylated, C-terminally extended GLP-1 analogue made by SPPS) | 36 | ≥ 1000 | 1.4 |
| H[Aib]EGTFTSDVSSYLEEQAAREFIAWLVRGK([AEEA-AEEA-γGlu-Trx-C20 diacid])GEGPAK([AEEA-AEEA-γGlu-Trx-C20 diacid]) (Double-acylated, C-terminally extended GLP-1 analogue made by SPPS; also called 16) | 25 | 602 | 1.4 |
| H[Aib]EGTFTSDVSSYLEEQAAREFIAWLVRGRGK([AEEA-AEEA-γGlu-Trx-C20 diacid])PEGK([AEEA-AEEA-γGlu-Trx-C20 diacid]) (Double-acylated, C-terminally extended GLP-1 analogue made by SPPS; also called 12) | 24 | 212 | 1.4 |
| H[Aib]EGTFTSDVSSYLEEK([AEEA-AEEA-γGlu-Trx-C20 diacid])AAREFIAWLVRGRGGGGSK([AEEA-AEEA-γGlu-Trx-C20 diacid]) (Double-acylated, C-terminally extended GLP-1 analogue made by SPPS) | 74 | 113 | 0.85 |
| H[Aib]EGTFTSDVSSYLEEQAAREFIAWLVRGRGK([AEEA-AEEA-γGlu-Trx-C20 diacid])SAEK([AEEA-AEEA-γGlu-Trx-C20 diacid]) (Double-acylated, C-terminally extended GLP-1 analogue made by SPPS; also called 13) | 24 | 160 | 1.4 |
| H[Aib]EGTFTSDVSSYLEEQAAREFIAWLVRGK([AEEA-AEEA-γGlu-Trx-C20 diacid])GGGGSK([AEEA-AEEA-γGlu-Trx-C20 diacid]) (Double-acylated, C-terminally extended GLP-1 analogue made by SPPS) | 61 | 101 | 1.1 |
| H[Aib]EGTFTSDVSSYLEEQAAREFIAWLVRGRGK([AEEA-AEEA-AEEA-AEEA-AEEA-AEEA-εLys-εLys-C20 diacid])GGSK([AEEA-AEEA-AEEA-AEEA-AEEA-AEEA-εLys-εLys-C20 diacid]) (Double-acylated, C-terminally extended GLP-1 analogue made by SPPS; also called 28) | 3.4 | 30 | 0.05 |
| [Desaminohistidyl][Aib]EGTFTSDVSSYLEEQAAREFIAWLVRGRGK([AEEA-AEEA-AEEA-AEEA-γGlu-C20 diacid])GGSK([AEEA-AEEA-AEEA-AEEA-γGlu-C20 diacid]) (Double-acylated, C-terminally extended GLP-1 analogue made by SPPS; also called 20) | 8.4 | 270 | 4.1 |
